Assay [1] concerns the target T1, Recombinant human PD-L1-His tag (ACROBiosystems, #PD1-H5229) (human, UniProt Q9NZQ7 19-238).
T1 construct: Bought protein; also called sPD-L1; human PD-L1-His tag protein; not shown: His tag
Description: Octet RED96e; PD-L1-His loaded at 10 µg/ml on HIS1K sensor; sample 66,7 nM; negative control, response about zero, round fit values. As for the experimental part:
(§1) FIG. 3a is a graph of Octet binding studies on sPD-L1. Recombinant human PD-L1-His tag (ACROBiosystems, #PD1-H5229) was loaded to His-sensor (HIS1K (Anti-Penta-His)) at 10 μg/ml and the binding of each construct was evaluated by Octet RED96e.
(§2) FIG. 3c is a graph depicting the KD values of anti-CD28/sPD-1 constructs on human PD-L1-His tag protein by Octet RED96e. The equilibrium dissociation constant (KD) is calculated as the ratio koff/kₒₙ (with koff:dissociation rates, and kₒₙ:association rates).
(§3) Anti-CD28/sPD-1 antibody fusion constructs were assessed for their ability to bind PD-1 ligands, PD-L1 and PD-L2 by Octet RED96e. Recombinant human PD-L1-His tag (ACROBiosystems, #PD1-H5229) or recombinant human PD-L2-His tag (ACROBiosystems, #PD2-H5220) were loaded to His-sensor (HIS1 K (Anti-Penta-His)) at 10 μg/ml. […] FIG. 3c is a summary of affinity (measured as Kd, M) for each construct on human PD-L1. […] FIG. 4c is a summary of affinity (measured as Kd, M) for each construct on human PD-L2.

In assay [2] the target is T2, Recombinant human PD-L2-His tag (ACROBiosystems, #PD2-H5220) (human, UniProt Q9BQ51 20-219).
T2 construct: Bought protein; also called sPD-L2; human PD-L2-His tag protein; not shown: His tag
T2 sequence (looked up): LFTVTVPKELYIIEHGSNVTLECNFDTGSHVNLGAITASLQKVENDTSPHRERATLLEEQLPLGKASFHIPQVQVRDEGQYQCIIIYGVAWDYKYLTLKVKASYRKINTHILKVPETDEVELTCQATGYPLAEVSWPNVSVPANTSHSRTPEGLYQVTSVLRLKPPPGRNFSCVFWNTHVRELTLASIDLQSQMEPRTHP
The assay is described as follows: Octet RED96e; PD-L2-His loaded at 10 µg/ml on HIS1K sensor; sample 66,7 nM; negative control, response about zero, round fit values. As for the experimental part: (§4) FIG. 4a is a graph of Octet binding studies on sPD-L2. Recombinant human PD-L2-His tag (ACROBiosystems, #PD2-H5220) was loaded to His-sensor (HIS1 K (Anti-Penta-His)) at 10 μg/ml and the binding of each construct was evaluated by Octet RED96e.
(§5) FIG. 4c is a graph depicting the KD values of anti-CD28/sPD-1 constructs on human PD-L2-His tag protein by Octet RED96e. The equilibrium dissociation constant (KD) is calculated as the ratio koff/kₒₙ (with koff:dissociation rates, and kₒₙ:association rates).
as §3

Assay [3] addresses T2, Recombinant human PD-L2-His tag …. The assay is described as follows: Octet RED96e; PD-L2-His loaded at 10 µg/ml on HIS1K sensor; sample 378,8 nM. As for the experimental part:
as §4, §5, §3
For orientation: BLI is a label-free optical method that tracks binding on a fibre tip over time.

Assay [4] addresses T1, Recombinant human PD-L1-His tag …. Description: Octet RED96e; PD-L1-His loaded at 10 µg/ml on HIS1K sensor; sample 378,8 nM. As for the experimental part:
as §1, §2, §3

The target of assay [5] is T2, Recombinant human PD-L2-His tag …. Description: Octet RED96e; PD-L2-His loaded at 10 µg/ml on HIS1K sensor; sample 75,8 nM. As for the experimental part: as §4, §5, §3
Assay [6] deals with T1, Recombinant human PD-L1-His tag …. Description: Octet RED96e; PD-L1-His loaded at 10 µg/ml on HIS1K sensor; sample 75,8 nM. As for the experimental part:
as §1, §2, §3

Assay [7] has the same target. The assay is described as follows: Octet RED96e; PD-L1-His loaded at 10 µg/ml on HIS1K sensor; sample 277,8 nM. As for the experimental part:
as §1, §2, §3

For assay [8] the target is unchanged. Description: Octet RED96e; PD-L1-His loaded at 10 µg/ml on HIS1K sensor; sample 55,6 nM. As for the experimental part: as §1, §2, §3
Assay [9] deals with T2, Recombinant human PD-L2-His tag …. The assay is described as follows: Octet RED96e; PD-L2-His loaded at 10 µg/ml on HIS1K sensor; sample 55,6 nM. As for the experimental part: as §4, §5, §3
Assay [10] has the same target. Description: Octet RED96e; PD-L2-His loaded at 10 µg/ml on HIS1K sensor; sample 277,8 nM. As for the experimental part: as §4, §5, §3

B1: Monoclonal anti-CD28 (9.3) mAb (GeneTex, #GTX14664) (antibody, V domains shown)
VH: EVKLQQSGPGLVTPSQSLSITCTVSGFSLSDYGVHWVRQSPGQGLEWLGVIWAGGGTNYNSALMSRKSISKDNSKSQVFLKMNSLQADDTAVYYCARDKGYSYYYSMDYWGQGTSVTVSS
VL: DIELTQSPASLAVSLGQRATISCRASESVEYYVTSLMQWYQQKPGQPPKLLIFAASNVESGVPARFSGSGSGTNFSLNIHPVDEDDVAMYFCQQSRKVPYTFGGGTKLEIK
notes: Bought 9.3 mAb without sPD-1 fusion; also called monoclonal antibody 9.3
On to B1, for which, in assay [1], the Kd – broadly, the constant that tells how readily two partners part at equilibrium – turned out to be 100 nM; the koff (usually the first-order rate constant of dissociation) was 0.001 s⁻¹; the kon (commonly the rate constant with which the complex forms) is 10000 M⁻¹ s⁻¹. Further, in assay [2], the Kd came out at 100 nM, the koff is 0.001 s⁻¹ and the kon was 10000 M⁻¹ s⁻¹.

B2: monovalent anti-CD28/sPD-1 wt (bispecific antibody)
light: DIELTQSPASLAVSLGQRATISCRASESVEYYVTSLMQWYQQKPGQPPKLLIFAASNVESGVPARFSGSGSGTNFSLNIHPVDEDDVAMYFCQQSRKVPYTFGGGTKLEIKRTVAAPSVFIFPPSDEQLKSGTASVVCLLNNFYPREAKVQWKVDNALQSGNSQESVTEQDSKDSTYSLSSTLTLSKADYEKHKVYACEVTHQGLSSPVTKSFNRGEC
heavy: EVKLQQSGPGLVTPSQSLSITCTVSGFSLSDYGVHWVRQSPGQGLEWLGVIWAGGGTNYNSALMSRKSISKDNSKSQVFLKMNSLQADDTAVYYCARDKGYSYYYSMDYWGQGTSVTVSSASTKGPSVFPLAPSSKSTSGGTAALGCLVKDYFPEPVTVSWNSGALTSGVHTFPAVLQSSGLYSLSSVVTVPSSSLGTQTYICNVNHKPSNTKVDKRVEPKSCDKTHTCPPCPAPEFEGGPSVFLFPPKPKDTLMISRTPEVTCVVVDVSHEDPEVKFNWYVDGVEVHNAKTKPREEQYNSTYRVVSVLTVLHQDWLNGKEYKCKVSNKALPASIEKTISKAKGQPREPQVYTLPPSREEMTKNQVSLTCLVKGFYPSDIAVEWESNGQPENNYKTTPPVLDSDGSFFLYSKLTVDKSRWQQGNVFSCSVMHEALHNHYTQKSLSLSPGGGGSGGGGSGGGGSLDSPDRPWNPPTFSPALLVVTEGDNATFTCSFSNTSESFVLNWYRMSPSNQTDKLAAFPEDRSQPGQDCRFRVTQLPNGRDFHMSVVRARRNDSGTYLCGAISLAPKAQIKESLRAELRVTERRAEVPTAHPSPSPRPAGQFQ
chain: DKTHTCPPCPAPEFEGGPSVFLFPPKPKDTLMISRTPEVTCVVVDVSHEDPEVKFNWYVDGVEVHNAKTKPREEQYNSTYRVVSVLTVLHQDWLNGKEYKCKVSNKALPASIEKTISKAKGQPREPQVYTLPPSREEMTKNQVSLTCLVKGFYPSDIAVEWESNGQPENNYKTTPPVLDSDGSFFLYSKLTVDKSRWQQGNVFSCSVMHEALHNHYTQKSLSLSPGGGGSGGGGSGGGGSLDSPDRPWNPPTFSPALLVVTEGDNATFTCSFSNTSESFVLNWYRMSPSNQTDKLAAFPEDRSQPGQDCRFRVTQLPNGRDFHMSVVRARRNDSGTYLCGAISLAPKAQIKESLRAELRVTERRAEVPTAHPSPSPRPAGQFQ
notes: also called Monovalent anti-CD28/sPD-1 Wild type structure; bispecific protein complex A:B-C-X:C'-Y
For B2, the Kd in assay [3] is 23.7 nM; in [4], 35.1 nM; in assay [5] it was 10 nM; in assay [6] it was 23.3 nM. The koff in assay [3] turned out to be 0.00318 s⁻¹; in [4], 0.0122 s⁻¹; in [5], 0.00283 s⁻¹; in assay [6], 0.013 s⁻¹. In addition, the kon in assay [3] is 134000 M⁻¹ s⁻¹; in [4] it was 348000 M⁻¹ s⁻¹; in [5] it was 282000 M⁻¹ s⁻¹; in [6], 559000 M⁻¹ s⁻¹.

B3: monovalent anti-CD28/sPD-1 mut (bispecific antibody)
light: B2 light
heavy: EVKLQQSGPGLVTPSQSLSITCTVSGFSLSDYGVHWVRQSPGQGLEWLGVIWAGGGTNYNSALMSRKSISKDNSKSQVFLKMNSLQADDTAVYYCARDKGYSYYYSMDYWGQGTSVTVSSASTKGPSVFPLAPSSKSTSGGTAALGCLVKDYFPEPVTVSWNSGALTSGVHTFPAVLQSSGLYSLSSVVTVPSSSLGTQTYICNVNHKPSNTKVDKRVEPKSCDKTHTCPPCPAPEFEGGPSVFLFPPKPKDTLMISRTPEVTCVVVDVSHEDPEVKFNWYVDGVEVHNAKTKPREEQYNSTYRVVSVLTVLHQDWLNGKEYKCKVSNKALPASIEKTISKAKGQPREPQVYTLPPSREEMTKNQVSLTCLVKGFYPSDIAVEWESNGQPENNYKTTPPVLDSDGSFFLYSKLTVDKSRWQQGNVFSCSVMHEALHNHYTQKSLSLSPGGGGSGGGGSGGGGSLDSPDRPWNPPTFSPALLVVTEGDNATFTCSFSNTSESFVLNWYRMSPSNQTDKLAAFPEDRSQPGQDCRFRVTQLPNGRDFHMSVVRARRNDSGTYLCSAISLAPYIQIKESLRAELRVTERRAEVPTAHPSPSPRPAGQFQ
chain: DKTHTCPPCPAPEFEGGPSVFLFPPKPKDTLMISRTPEVTCVVVDVSHEDPEVKFNWYVDGVEVHNAKTKPREEQYNSTYRVVSVLTVLHQDWLNGKEYKCKVSNKALPASIEKTISKAKGQPREPQVYTLPPSREEMTKNQVSLTCLVKGFYPSDIAVEWESNGQPENNYKTTPPVLDSDGSFFLYSKLTVDKSRWQQGNVFSCSVMHEALHNHYTQKSLSLSPGGGGSGGGGSGGGGSLDSPDRPWNPPTFSPALLVVTEGDNATFTCSFSNTSESFVLNWYRMSPSNQTDKLAAFPEDRSQPGQDCRFRVTQLPNGRDFHMSVVRARRNDSGTYLCSAISLAPYIQIKESLRAELRVTERRAEVPTAHPSPSPRPAGQFQ
notes: The sPD-1 fragments carry G124S, K131Y and A132I (numbering of full-length human PD-1); also called Mono Mut; Monovalent anti-CD28/sPD-1 Mutated structure
As to B3, the Kd in [3] came to 1.33 nM; in assay [4], 2.17 nM; in assay [5] it was 1.05 nM; in assay [6], 1.57 nM. In addition, the koff in assay [3] was determined as 0.000183 s⁻¹; in assay [4], 0.00061 s⁻¹; in assay [5] it was 0.000342 s⁻¹; in assay [6], 0.00083 s⁻¹. Further, the kon was 138000 M⁻¹ s⁻¹ in assay [3], 281000 M⁻¹ s⁻¹ in assay [4], 324000 M⁻¹ s⁻¹ in assay [5] and 528000 M⁻¹ s⁻¹ in assay [6].

B4: bivalent anti-CD28/sPD-1 mut (bispecific antibody, human IgG1, kappa)
light: B2 light
heavy: B3 heavy
notes: The sPD-1 fragments carry G124S, K131Y and A132I; also called Bi Mut; Bivalent anti-CD28/sPD-1 Mutated structure
B4: the Kd was determined as 1.65 nM in assay [7], 1.21 nM in assay [8], 0.774 nM in assay [9] and 0.883 nM in assay [10]. In addition, the koff in assay [7] was 0.00055 s⁻¹; in [8], 0.000698 s⁻¹; in [9], 0.0003 s⁻¹; in assay [10], 0.000153 s⁻¹. Further, the kon in assay [7] is 334000 M⁻¹ s⁻¹; in assay [8] it was 578000 M⁻¹ s⁻¹; in assay [9], 387000 M⁻¹ s⁻¹; in [10] it was 174000 M⁻¹ s⁻¹.

(Values after patent publication US20250197499A1 (STEALTH IO, published 2025).)
